Target: T1, 人CD99蛋白 (组织切片中表达) (human, UniProt P14209 23-185)
T1 construct: whole, on cells
T1 sequence (looked up): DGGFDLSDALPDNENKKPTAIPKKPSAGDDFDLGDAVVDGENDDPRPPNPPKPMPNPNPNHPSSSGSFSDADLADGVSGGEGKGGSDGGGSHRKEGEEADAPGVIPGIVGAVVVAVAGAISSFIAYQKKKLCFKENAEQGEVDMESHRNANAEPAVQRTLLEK
Test: IHC on 8 ovarian granulosa cell tumours and 8 primitive neuroectodermal tumours

B1: 抗CD99蛋白单克隆抗体(10D2A10F9) (antibody, V domains shown)
VH: EVQLQQSGAELVKPGASVKLSCTASGFNIKDTYMHWVKQRPEQGLEWIGRIDPANGNTKYDPKFQGKATITADTSSNTAYLQLSSLTSEDTAVYYCGRRGFAYWGQGTLVTVSA
VL: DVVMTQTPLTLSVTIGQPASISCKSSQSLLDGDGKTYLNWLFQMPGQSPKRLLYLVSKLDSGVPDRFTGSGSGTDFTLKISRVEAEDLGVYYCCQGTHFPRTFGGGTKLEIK
notes: also called CGMCC NO.22316
B1: binds.

Source: CN113929783A (FUZHOU MAIXIN BIOTECHNOLOGY DEV CO LTD, dated 2022)
